This assay concerns the target MlucV reporter (mTFP1 - mutated firefly luciferase - Venus), urea-pre-unfolded / misfolding (firefly).

Drawing on PMC12305717, this text covers prevention of aggregation: normalised FRET of urea-pre-unfolded MlucV diluted into increasing Ydj1 (150% without Ydj1; native MlucV = 100%) (% of the FRET of native MlucV) and prevention of aggregation: normalised FRET of urea-pre-unfolded MlucV diluted into increasing Ssa1 (150% without chaperone) (% of the FRET of native MlucV) for two substances.

Ssa1 (yeast cytosolic Hsp70), sequence (P10591 whole entry): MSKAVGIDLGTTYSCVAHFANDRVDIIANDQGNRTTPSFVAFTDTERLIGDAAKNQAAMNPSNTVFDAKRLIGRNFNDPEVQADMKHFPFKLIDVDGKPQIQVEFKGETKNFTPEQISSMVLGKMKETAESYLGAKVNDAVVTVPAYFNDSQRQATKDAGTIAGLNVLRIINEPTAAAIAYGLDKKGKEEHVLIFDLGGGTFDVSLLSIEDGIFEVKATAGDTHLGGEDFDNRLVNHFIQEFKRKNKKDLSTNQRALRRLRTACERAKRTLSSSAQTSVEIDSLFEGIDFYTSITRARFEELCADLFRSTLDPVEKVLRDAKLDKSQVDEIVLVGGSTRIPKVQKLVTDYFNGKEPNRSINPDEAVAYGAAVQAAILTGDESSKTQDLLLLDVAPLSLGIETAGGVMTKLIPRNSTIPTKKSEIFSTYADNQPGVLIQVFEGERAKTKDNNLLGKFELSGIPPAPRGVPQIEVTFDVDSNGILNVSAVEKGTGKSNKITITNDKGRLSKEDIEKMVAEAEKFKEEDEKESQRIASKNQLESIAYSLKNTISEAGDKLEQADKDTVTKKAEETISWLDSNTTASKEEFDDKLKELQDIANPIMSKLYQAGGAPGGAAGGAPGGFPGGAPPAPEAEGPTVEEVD
Ydj1 (yeast class A J-domain protein), sequence (P25491 whole entry): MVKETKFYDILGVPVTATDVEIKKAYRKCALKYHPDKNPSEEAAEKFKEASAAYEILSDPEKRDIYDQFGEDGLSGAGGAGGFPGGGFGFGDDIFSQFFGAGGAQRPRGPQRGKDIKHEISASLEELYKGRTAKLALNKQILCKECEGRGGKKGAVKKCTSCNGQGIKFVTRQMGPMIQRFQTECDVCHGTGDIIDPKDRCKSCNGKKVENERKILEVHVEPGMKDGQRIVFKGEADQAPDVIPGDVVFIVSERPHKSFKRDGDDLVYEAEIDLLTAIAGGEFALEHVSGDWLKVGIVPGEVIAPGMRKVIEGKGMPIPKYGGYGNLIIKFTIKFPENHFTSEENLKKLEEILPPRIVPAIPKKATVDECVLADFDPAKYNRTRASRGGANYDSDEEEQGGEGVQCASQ

“Ydj1 (yeast class A J-domain protein) (from UniProt P25491 1-409) (natural protein)”: the prevention of aggregation: normalised FRET of urea-pre-unfolded MlucV diluted into increasing Ydj1 (150% without Ydj1; native MlucV = 100%) (% of the FRET of native MlucV) turned out to be 105.

The substance “Ssa1 (yeast cytosolic Hsp70) (from UniProt P10591 1-642) (natural protein)” yielded a prevention of aggregation: normalised FRET of urea-pre-unfolded MlucV diluted into increasing Ssa1 (150% without chaperone) (% of the FRET of native MlucV) of 145.
